B1: Dystrophin (Homo sapiens), P11532-5 (parent)
chain: MREQLKGHETQTTCWDHPKMTELYQSLADLNNVRFSAYRTAMKLRRLQKALCLDLLSLSAACDALDQHNLKQNDQPMDILQIINCLTTIYDRLEQEHNNLVNVPLCVDMCLNWLLNVYDTGRTGRIRVLSFKTGIISLCKAHLEDKYRYLFKQVASSTGFCDQRRLGLLLHDSIQIPRQLGEVASFGGSNIEPSVRSCFQFANNKPEIEAALFLDWMRLEPQSMVWLPVLHRVAAAETAKHQAKCNICKECPIIGFRYRSLKHFNYDICQSCFFSGRVAKGHKMHYPMVEYCTPTTSGEDVRDFAKVLKNKFRTKRYFAKHPRMGYLPVQTVLEGDNMETPASSPQLSHDDTHSRIEHYASRLAEMENSNGSYLNDSISPNESIDDEHLLIQHYCQSLNQDSPLSQPRSPAQILISLESEERGELERILADLEEENRNLQAEYDRLKQQHEHKGLSPLPSPPEMMPTSPQSPRDAELIAEAKLLRQHKGRLEARMQILEDHNKQLESQLHRLRQLLEQPQAEAKVNGTTVSSPSTSLQRSDSSQPMLLRVVGSQTSDSMGEEDLLSPPQDTSTGLEEVMEQLNNSFPSSRGHNVGSLFHMADDLGRAMESLVSVMTDEEGAE

Variants of: B1
Details: with ank2_human ANK2, Q01484
Chain of ank2_human ANK2, Q01484 (Q01484 whole entry): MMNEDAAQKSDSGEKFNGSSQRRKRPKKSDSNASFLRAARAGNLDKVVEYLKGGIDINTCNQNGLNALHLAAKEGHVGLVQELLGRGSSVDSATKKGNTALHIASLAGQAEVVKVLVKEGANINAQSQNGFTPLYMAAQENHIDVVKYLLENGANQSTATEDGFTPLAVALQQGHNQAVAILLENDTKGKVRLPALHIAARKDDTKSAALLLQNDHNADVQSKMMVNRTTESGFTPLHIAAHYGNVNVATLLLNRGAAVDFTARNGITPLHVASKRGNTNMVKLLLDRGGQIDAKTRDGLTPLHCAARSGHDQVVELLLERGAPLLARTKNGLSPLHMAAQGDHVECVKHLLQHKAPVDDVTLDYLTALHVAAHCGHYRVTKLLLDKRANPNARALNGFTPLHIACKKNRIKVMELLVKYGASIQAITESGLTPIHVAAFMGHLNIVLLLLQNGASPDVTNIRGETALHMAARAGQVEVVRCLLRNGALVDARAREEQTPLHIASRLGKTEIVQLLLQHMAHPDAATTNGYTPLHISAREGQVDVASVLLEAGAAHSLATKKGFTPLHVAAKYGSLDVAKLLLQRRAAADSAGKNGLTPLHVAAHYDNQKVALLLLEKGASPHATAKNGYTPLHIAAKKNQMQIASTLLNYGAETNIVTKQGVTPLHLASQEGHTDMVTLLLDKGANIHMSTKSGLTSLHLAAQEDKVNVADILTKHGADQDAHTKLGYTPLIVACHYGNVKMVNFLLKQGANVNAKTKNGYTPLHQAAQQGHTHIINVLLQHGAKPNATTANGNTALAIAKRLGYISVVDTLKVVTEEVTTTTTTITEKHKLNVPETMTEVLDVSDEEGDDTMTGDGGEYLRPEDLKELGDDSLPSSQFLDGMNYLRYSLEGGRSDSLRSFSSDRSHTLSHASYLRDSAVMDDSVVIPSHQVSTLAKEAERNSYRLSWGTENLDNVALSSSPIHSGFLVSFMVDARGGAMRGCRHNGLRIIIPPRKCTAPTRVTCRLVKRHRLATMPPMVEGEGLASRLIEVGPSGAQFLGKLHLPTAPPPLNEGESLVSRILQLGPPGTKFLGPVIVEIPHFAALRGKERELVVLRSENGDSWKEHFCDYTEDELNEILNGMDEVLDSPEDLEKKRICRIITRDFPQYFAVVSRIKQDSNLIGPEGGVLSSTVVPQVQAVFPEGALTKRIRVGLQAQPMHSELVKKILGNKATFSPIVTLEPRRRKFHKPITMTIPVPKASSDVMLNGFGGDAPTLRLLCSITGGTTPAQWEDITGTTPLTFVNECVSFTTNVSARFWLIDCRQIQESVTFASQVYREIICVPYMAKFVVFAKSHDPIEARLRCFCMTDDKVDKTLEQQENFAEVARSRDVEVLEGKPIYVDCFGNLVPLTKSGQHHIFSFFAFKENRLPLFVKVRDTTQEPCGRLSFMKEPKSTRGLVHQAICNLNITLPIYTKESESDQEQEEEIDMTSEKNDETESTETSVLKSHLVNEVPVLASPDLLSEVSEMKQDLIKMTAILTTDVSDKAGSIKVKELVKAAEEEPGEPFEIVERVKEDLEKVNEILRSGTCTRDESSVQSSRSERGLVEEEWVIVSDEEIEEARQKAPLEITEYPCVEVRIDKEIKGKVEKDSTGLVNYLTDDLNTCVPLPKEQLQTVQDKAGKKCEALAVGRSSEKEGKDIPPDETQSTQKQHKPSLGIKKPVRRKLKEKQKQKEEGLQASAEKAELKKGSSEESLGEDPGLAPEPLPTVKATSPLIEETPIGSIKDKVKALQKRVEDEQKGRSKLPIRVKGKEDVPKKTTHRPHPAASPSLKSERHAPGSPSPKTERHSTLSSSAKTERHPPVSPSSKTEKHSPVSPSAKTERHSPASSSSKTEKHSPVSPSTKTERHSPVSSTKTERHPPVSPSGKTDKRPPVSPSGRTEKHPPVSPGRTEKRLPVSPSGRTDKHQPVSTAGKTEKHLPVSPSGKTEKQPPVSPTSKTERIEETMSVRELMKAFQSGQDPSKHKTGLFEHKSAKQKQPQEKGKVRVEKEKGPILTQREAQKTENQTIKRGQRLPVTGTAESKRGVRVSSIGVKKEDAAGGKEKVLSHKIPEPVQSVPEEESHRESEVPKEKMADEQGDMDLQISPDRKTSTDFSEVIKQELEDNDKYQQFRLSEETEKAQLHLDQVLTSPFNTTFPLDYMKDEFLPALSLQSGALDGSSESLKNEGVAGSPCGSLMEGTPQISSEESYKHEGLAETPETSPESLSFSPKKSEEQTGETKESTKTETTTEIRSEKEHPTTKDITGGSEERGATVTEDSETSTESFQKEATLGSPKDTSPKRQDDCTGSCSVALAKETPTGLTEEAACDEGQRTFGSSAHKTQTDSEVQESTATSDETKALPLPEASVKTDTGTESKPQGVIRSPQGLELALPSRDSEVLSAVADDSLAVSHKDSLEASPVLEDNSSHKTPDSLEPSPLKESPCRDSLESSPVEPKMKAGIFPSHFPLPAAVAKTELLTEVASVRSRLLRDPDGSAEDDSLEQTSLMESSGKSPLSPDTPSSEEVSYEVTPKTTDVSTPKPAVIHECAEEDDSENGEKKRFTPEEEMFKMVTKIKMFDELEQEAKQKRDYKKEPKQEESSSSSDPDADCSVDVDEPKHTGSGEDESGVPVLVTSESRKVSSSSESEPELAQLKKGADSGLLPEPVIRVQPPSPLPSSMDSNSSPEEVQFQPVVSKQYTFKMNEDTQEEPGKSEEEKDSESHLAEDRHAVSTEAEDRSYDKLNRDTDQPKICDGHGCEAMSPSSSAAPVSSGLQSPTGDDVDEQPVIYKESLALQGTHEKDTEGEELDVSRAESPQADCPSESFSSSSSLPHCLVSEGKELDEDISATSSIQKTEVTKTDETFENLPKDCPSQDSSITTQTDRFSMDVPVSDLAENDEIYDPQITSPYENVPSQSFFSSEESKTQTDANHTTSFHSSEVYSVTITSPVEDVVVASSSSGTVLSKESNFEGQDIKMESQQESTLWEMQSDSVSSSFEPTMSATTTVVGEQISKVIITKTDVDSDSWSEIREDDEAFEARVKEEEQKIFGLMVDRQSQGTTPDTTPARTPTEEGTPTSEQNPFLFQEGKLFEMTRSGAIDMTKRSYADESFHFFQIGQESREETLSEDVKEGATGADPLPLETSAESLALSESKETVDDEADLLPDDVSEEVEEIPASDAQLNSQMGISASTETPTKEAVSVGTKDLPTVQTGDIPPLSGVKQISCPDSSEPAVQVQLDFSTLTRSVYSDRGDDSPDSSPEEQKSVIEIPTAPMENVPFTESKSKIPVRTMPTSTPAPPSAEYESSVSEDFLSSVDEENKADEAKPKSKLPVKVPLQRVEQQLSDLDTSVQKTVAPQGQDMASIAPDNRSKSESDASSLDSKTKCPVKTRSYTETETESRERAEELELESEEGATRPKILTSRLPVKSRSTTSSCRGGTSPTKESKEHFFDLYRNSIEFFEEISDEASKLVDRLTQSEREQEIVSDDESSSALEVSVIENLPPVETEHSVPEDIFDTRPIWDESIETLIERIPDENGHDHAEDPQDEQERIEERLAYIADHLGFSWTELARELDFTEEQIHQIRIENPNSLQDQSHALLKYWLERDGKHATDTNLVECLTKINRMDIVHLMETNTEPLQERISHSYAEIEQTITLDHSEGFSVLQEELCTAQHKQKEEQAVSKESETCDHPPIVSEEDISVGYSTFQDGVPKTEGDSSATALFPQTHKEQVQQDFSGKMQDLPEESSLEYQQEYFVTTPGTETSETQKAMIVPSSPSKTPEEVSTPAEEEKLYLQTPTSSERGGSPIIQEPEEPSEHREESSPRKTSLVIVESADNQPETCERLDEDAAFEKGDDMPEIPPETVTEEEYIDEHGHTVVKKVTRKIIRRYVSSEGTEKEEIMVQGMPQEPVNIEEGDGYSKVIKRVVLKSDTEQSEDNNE
With D267N the “effect of a mutation on the interaction” value was “decreasing interaction”.
